# According to publication PMC8604728:
# B1: unnamed (parent)
# chain 1: DYMGWMDF
# chain 2: MDVVDSLLVNGSNITPPCELGLENETLFCLDQPRPSKEWQPAVQILLYSLIFLLSVLGNTLVITVLIRNKRMRTVTNIFLLSLAVSDLMLCLFCMPFNLIPNLLKDFIFGSAVCKTTTYFMGTSVSVSTFNLVAISLERYGAICKPLQSRVWQTKSHALKVIAATWCLSFTIMTPYPIYSNLVPFTKNNNQTANMCRFLLPNDVMQQSWHTFLLLILFLIPGIVMMVAYGLISLELYQGIKFEASQKKSAKERKPSTTSSGKYEDSDGCYLQKTRPPRKLELRQLSTGSSSRANRIRSNSSAANLMAKKRVIRMLIVIVVLFFLCWMPIFSANAWRAYDTASAERRLSGTPISFILLLSYTSSCVNPIIYCFMNKRFRLGFMATFPCCPNPGPPGARGEVGEEEEGGTTGASLSRFSYSHMSASVPPQ
# Variants of: B1
# Assay: radiolabeled ligand-binding assay (competition with unlabeled CCK-8)
# Settings: upper plateau of the fitted competition curve at the lowest CCK-8 concentration (log [CCK-8] = -12), read off a plot
row,Variant,percent of parent [% WT]
1,chain 2 Y360A,28
2,chain 2 V125A,75
3,chain 2 M121A,230
4,chain 2 H210A,70
5,chain 2 M195A,30
6,chain 2 F185A,15
7,chain 2 T118A,110
8,chain 2 K105A,50
